B1: NΔ150-hTPH2 A328V (domain or fragment)
chain: not shown
B2: Human tryptophan hydroxylase 2, full-length wild type (enzyme, UniProt Q8IWU9 1-490, looked up)
chain: MQPAMMMFSSKYWARRGFSLDSAVPEEHQLLGSSTLNKPNSGKNDDKGNKGSSKREAATESGKTAVVFSLKNEVGGLVKALRLFQEKRVNMVHIESRKSRRRSSEVEIFVDCECGKTEFNELIQLLKFQTTIVTLNPPENIWTEEEELEDVPWFPRKISELDKCSHRVLMYGSELDADHPGFKDNVYRQRRKYFVDVAMGYKYGQPIPRVEYTEEETKTWGVVFRELSKLYPTHACREYLKNFPLLTKYCGYREDNVPQLEDVSMFLKERSGFTVRPVAGYLSPRDFLAGLAYRVFHCTQYIRHGSDPLYTPEPDTCHELLGHVPLLADPKFAQFSQEIGLASLGASDEDVQKLATCYFFTIEFGLCKQEGQLRAYGAGLLSSIGELKHALSDKACVKAFDPKTTCLQECLITTFQEAYFVSESFEEAKEKMRDFAKSITRPFSVYFNPYTQSIEILKDTRSIENVVQDLRSDLNTVCDALNKMNQYLGI
B3: Human tryptophan hydroxylase 2, full-length A328V variant (rs2887147) (enzyme, UniProt Q8IWU9 1-490, looked up)
chain: MQPAMMMFSSKYWARRGFSLDSAVPEEHQLLGSSTLNKPNSGKNDDKGNKGSSKREAATESGKTAVVFSLKNEVGGLVKALRLFQEKRVNMVHIESRKSRRRSSEVEIFVDCECGKTEFNELIQLLKFQTTIVTLNPPENIWTEEEELEDVPWFPRKISELDKCSHRVLMYGSELDADHPGFKDNVYRQRRKYFVDVAMGYKYGQPIPRVEYTEEETKTWGVVFRELSKLYPTHACREYLKNFPLLTKYCGYREDNVPQLEDVSMFLKERSGFTVRPVAGYLSPRDFLAGLAYRVFHCTQYIRHGSDPLYTPEPDTCHELLGHVPLLVDPKFAQFSQEIGLASLGASDEDVQKLATCYFFTIEFGLCKQEGQLRAYGAGLLSSIGELKHALSDKACVKAFDPKTTCLQECLITTFQEAYFVSESFEEAKEKMRDFAKSITRPFSVYFNPYTQSIEILKDTRSIENVVQDLRSDLNTVCDALNKMNQYLGI
B4: NΔ150-hTPH2 A328E (domain or fragment)
chain: not shown
B5: NΔ150-hTPH2, wild type (human tryptophan hydroxylase 2 lacking the N-terminal 150 amino acid regulatory domain) (domain or fragment)
chain: not shown

Target: the molecule itself
Test: SEC

Stoichiometry N, 4:
B1
B2
B3
B4
B5
